Reference: patent US20140242077A1 (AbbVie / Abbott, published 2014)
Where a chain is given by its changes, count along the chain named.

T1: LAG3 (human, UniProt P18627 23-525)
T1 construct: whole, on cells; The intended T-cell surface marker of the LAG3 variable domains
T1 sequence (looked up): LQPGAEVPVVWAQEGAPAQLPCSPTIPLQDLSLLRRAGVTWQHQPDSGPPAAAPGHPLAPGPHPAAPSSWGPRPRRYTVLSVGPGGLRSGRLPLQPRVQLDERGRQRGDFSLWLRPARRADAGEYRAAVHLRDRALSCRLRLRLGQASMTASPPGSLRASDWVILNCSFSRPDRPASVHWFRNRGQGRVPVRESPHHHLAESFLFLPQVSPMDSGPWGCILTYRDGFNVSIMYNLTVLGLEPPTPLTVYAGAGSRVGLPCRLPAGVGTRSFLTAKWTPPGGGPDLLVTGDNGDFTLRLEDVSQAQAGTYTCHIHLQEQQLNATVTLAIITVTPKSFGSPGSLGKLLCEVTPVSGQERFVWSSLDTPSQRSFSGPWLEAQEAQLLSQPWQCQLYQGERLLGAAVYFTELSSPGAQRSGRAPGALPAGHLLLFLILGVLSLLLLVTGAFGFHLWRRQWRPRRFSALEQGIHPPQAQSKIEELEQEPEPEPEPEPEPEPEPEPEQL

B1: DVD2567 (bispecific antibody)
VH: QVQLQQWGAGLLKPSETLSLTCAVYGGSFSGYYWSWIRQSPEKGLEWIGEINHGGYVTYNPSLESRVTISVDTSKNQFSLKLSSVTAADTAVYYCARDYGPGNYDWYFDLWGRGTLVTVSSASTKGPQVQLQQWGAGLLKPSETLSLTCAVYGGSFSDYYWNWIRQPPGKGLEWIGEINHNGNTNSNPSLKSRVTLSLDTSKNQFSLKLRSVTAADTAVYYCAFGYSDYEYNWFDPWGQGTLVTVSS
VL: EIVLTQSPATLSLSPGERATLSCRASQSVSSYLAWYQQKPGQAPRLLIYDASNRATGIPARFSGSGSGTDFTLTISSLEPEDFAVYYCQQRSNWPPALTFGGGTKVEIKRTVAAPEIVLTQSPATLSLSPGERATLSCRASQSISSYLAWYQQKPGQAPRLLIYDASNRATGIPARFSGSGSGTDFTLTISSLEPEDFAVYYCQQRSNWPLTFGQGTNLEIKR
notes: Four-chain DVD-Ig; also called DVD2567H/DVD2567L; 41BB/LAG3 DVD-Ig
B2: DVD2568 (bispecific antibody)
VH: QVQLQQWGAGLLKPSETLSLTCAVYGGSFSGYYWSWIRQSPEKGLEWIGEINHGGYVTYNPSLESRVTISVDTSKNQFSLKLSSVTAADTAVYYCARDYGPGNYDWYFDLWGRGTLVTVSSASTKGPSVFPLAPQVQLQQWGAGLLKPSETLSLTCAVYGGSFSDYYWNWIRQPPGKGLEWIGEINHNGNTNSNPSLKSRVTLSLDTSKNQFSLKLRSVTAADTAVYYCAFGYSDYEYNWFDPWGQGTLVTVSS
VL: B1 VL
notes: Four-chain DVD-Ig; also called DVD2568H/DVD2568L; 41BB/LAG3 DVD-Ig
B3: DVD2569 (bispecific antibody)
VH: QVQLQQWGAGLLKPSETLSLTCAVYGGSFSDYYWNWIRQPPGKGLEWIGEINHNGNTNSNPSLKSRVTLSLDTSKNQFSLKLRSVTAADTAVYYCAFGYSDYEYNWFDPWGQGTLVTVSSASTKGPQVQLQQWGAGLLKPSETLSLTCAVYGGSFSGYYWSWIRQSPEKGLEWIGEINHGGYVTYNPSLESRVTISVDTSKNQFSLKLSSVTAADTAVYYCARDYGPGNYDWYFDLWGRGTLVTVSS
VL: EIVLTQSPATLSLSPGERATLSCRASQSISSYLAWYQQKPGQAPRLLIYDASNRATGIPARFSGSGSGTDFTLTISSLEPEDFAVYYCQQRSNWPLTFGQGTNLEIKRTVAAPEIVLTQSPATLSLSPGERATLSCRASQSVSSYLAWYQQKPGQAPRLLIYDASNRATGIPARFSGSGSGTDFTLTISSLEPEDFAVYYCQQRSNWPPALTFGGGTKVEIKR
notes: Four-chain DVD-Ig; also called DVD2569H/DVD2569L; LAG3/41BB DVD-Ig
B4: DVD2570 (bispecific antibody)
VH: QVQLQQWGAGLLKPSETLSLTCAVYGGSFSDYYWNWIRQPPGKGLEWIGEINHNGNTNSNPSLKSRVTLSLDTSKNQFSLKLRSVTAADTAVYYCAFGYSDYEYNWFDPWGQGTLVTVSSASTKGPSVFPLAPQVQLQQWGAGLLKPSETLSLTCAVYGGSFSGYYWSWIRQSPEKGLEWIGEINHGGYVTYNPSLESRVTISVDTSKNQFSLKLSSVTAADTAVYYCARDYGPGNYDWYFDLWGRGTLVTVSS
VL: B3 VL
notes: Four-chain DVD-Ig; also called DVD2570H/DVD2570L
B5: DVD2555 (bispecific antibody)
VH: QVQLVESGGGVVQPGRSLRLDCKASGITFSNSGMHWVRQAPGKGLEWVAVIWYDGSKRYYADSVKGRFTISRDNSKNTLFLQMNSLRAEDTAVYYCATNDDYWGQGTLVTVSSASTKGPQVQLQQWGAGLLKPSETLSLTCAVYGGSFSDYYWNWIRQPPGKGLEWIGEINHNGNTNSNPSLKSRVTLSLDTSKNQFSLKLRSVTAADTAVYYCAFGYSDYEYNWFDPWGQGTLVTVSS
VL: EIVLTQSPATLSLSPGERATLSCRASQSVSSYLAWYQQKPGQAPRLLIYDASNRATGIPARFSGSGSGTDFTLTISSLEPEDFAVYYCQQSSNWPRTFGQGTKVEIKRTVAAPEIVLTQSPATLSLSPGERATLSCRASQSISSYLAWYQQKPGQAPRLLIYDASNRATGIPARFSGSGSGTDFTLTISSLEPEDFAVYYCQQRSNWPLTFGQGTNLEIKR
notes: Four-chain DVD-Ig; also called DVD2555H/DVD2555L; PD1/LAG3 DVD-Ig
B6: DVD2556 (bispecific antibody)
VH: QVQLVESGGGVVQPGRSLRLDCKASGITFSNSGMHWVRQAPGKGLEWVAVIWYDGSKRYYADSVKGRFTISRDNSKNTLFLQMNSLRAEDTAVYYCATNDDYWGQGTLVTVSSASTKGPSVFPLAPQVQLQQWGAGLLKPSETLSLTCAVYGGSFSDYYWNWIRQPPGKGLEWIGEINHNGNTNSNPSLKSRVTLSLDTSKNQFSLKLRSVTAADTAVYYCAFGYSDYEYNWFDPWGQGTLVTVSS
VL: B5 VL
notes: Four-chain DVD-Ig; also called DVD2556H/DVD2556L; PD1/LAG3 DVD-Ig
B7: DVD2557 (bispecific antibody)
VH: QVQLQQWGAGLLKPSETLSLTCAVYGGSFSDYYWNWIRQPPGKGLEWIGEINHNGNTNSNPSLKSRVTLSLDTSKNQFSLKLRSVTAADTAVYYCAFGYSDYEYNWFDPWGQGTLVTVSSASTKGPQVQLVESGGGVVQPGRSLRLDCKASGITFSNSGMHWVRQAPGKGLEWVAVIWYDGSKRYYADSVKGRFTISRDNSKNTLFLQMNSLRAEDTAVYYCATNDDYWGQGTLVTVSS
VL: B5 VL with V29I, S91R, R96L, K103N, V104L, I142V, R204S, L209R, N216K, L217V
notes: Four-chain DVD-Ig; also called DVD2557H/DVD2557L; LAG3/PD1 DVD-Ig

Legend:
Assay in all cases: flow cytometry on activated human T-cells
LAG3 = molecular target: T1, LAG3
Experimental: (§1) PBMCs were isolated from heparinized leukopaks by use of Ficoll density gradient centrifugation. PBMCs were stimulated overnight with CD2/CD3/CD28 beads from a T-Cell Activation/Expansion Kit (Miltenyi Biotech, Germany) according to the manufacturer's protocol. Activated T-cells were incubated with primary antibody for 1 hour at 4° C., washed in PBS, and then incubated for 30 minutes with fluorescently-labeled secondary anti-Fc specific antibody (Jackson ImmunoResearch, West Grove, Pa.). Activated T-cell samples were analyzed on a FACSCantoII cytometer (BD) and data were analyzed with FlowJo software. Geometric mean fluorescence intensity was compared to DVD-Ig protein concentration by graphing in the GraphPad Prism software package (see FIG. 14).

4-1BB = molecular target: T2, 4-1BB (human, UniProt Q07011 24-255)
T2 construct: whole, on cells; The intended T-cell surface marker of the 41BB variable domains; also called CD137; TNFRSF9
Experimental: as §1

PD1 = molecular target: T3, PD1 (human, UniProt Q15116 25-288)
T3 construct: whole, on cells; The intended T-cell surface marker of the PD1 variable domains; also called programmed cell death protein 1
Experimental: as §1

T2 sequence (Q07011 24-255): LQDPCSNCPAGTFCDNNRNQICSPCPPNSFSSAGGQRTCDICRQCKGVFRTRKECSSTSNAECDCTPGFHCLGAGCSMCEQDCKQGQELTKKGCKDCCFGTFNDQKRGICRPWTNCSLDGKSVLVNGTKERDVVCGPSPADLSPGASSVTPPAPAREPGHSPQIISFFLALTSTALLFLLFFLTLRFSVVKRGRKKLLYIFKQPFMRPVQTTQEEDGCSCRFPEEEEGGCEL
T3 sequence (Q15116 25-288): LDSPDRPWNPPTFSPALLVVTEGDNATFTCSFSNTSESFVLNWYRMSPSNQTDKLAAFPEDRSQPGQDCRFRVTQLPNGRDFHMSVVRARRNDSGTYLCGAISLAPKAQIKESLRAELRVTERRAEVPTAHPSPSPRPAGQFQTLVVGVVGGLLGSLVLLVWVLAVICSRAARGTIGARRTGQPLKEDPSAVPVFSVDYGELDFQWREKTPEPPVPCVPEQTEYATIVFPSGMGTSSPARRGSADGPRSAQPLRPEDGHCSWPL

Binder | binding result (LAG3) | binding result (4-1BB) | binding result (PD1)
B1 | binds | binds | –
B2 | binds | binds | –
B3 | binds | binds | –
B4 | binds | binds | –
B5 | – | – | binds
B6 | – | – | binds
B7 | – | – | binds
